# Target: Erwinia amylovora AmyR (Erwinia amylovora strain CFBP1430)
# Experiment: crystal structure; native AmyR at 8 mg/ml, sitting-drop vapour diffusion, 0.1 M sodium cacodylate pH 6.9, 0.2 M magnesium chloride, 46% (v/v) PEG 200, 293 K; 1.95 Å, space group P 2(1)2(1)2; homodimer in the asymmetric unit
substance,measurement,value
Erwinia amylovora AmyR (natural protein),stoichiometry N,2
